# In patent publication US20240409645A1:
# Where a chain is given by its changes, count along the chain named.
# T1: mouse IL-2Rβ (mouse) (UniProt P16297)
# T1 sequence (looked up): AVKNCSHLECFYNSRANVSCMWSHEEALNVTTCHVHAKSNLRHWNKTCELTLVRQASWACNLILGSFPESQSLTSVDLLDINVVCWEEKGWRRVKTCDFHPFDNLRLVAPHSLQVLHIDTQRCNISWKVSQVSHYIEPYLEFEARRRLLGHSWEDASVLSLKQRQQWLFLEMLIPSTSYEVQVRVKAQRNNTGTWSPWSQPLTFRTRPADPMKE
# B1: FJ1427 P035MP03C04 (VHH)
# VHH: EVQLVESGGGLVQAGASLELSCAASGGTFSSYAMGWFRQAPGKEREFVAATTRGGGRTMYAVSTEGRFSCSRDNAKNTVNLLIKNLKPEDTAVYYCAARTSYYDGTYYPASSDFDIWGQGTQVTVSS
# B2: FJ1427 P035MP03D04 (VHH)
# VHH: QVQLVESGGGLVQPGGSLRLSCAASGFTFSNYAMSWVRQAPGKELEWVSSITSAGRGTHYADTVKGRFTISRDNDENTLYLQMNSLEPEDTAVYYCAKYSSATYYPPTPAQGRDYRGQGTQVTVSS
# B3: FJ1427_P035MP03E04 (VHH)
# VHH: QVQLVESGGGLVQTGGSLRLSCAVSGSHFISDVMGWYRQVPEKQRELVADMADGNSAKYADSVKGRFSILRDSVKNTVYLQMSSLKPEDTGIYYCKAGLWIAGRHSDYWGQGTQVTVSS
# B4: FJ1427_P035MP03F04 (VHH)
# VHH: EVQLVESGGGLVQTGGSLRLSCAASGSQFINDVMGWYRQVPGKQRELVADMDDTGSTKYADSVKGRFTILRDSVKNTAYLQMSNLKPEDTGVYYCKAGLWIKGRHSDYWGQGTQVTVSS
# B5: FJ1427_P035MP03H04 (VHH)
# VHH: B1 VHH with E1Q, A16G, E19A, N80Y
# B6: FJ1427_P035MP03B05 (VHH)
# VHH: EVQLVESGGGLVQAGGSLRLACALSGDVFVRYTMAWFRQAPGKEREFVASVTDSGRTTDYVASVQGRFTVSRDNNKNTVYLQMNSLKPEDTAVYYCAANTDYFQIRSLDRNTWGQGTQVTVSS
# B7: FJ1427 P035MP03E05 (VHH)
# VHH: EVQLVESGGGLVQAGGSLRLSCAVSGVIFWSDVVGWYRQASGKQRELVATINLDDTKHYGEVVKGRFAISRDSHKNAYYLQLNSLKPEDTAVYYCNVRRGSEFYWGQGTQVTVSS
# B8: FJ1427_P035MP03G05 (VHH)
# VHH: EVQLVESGGGLVQIGGSLRLSCAASGRTFSSITMAYFRQVPGKEREWVAGINFSGTRTFYADSVKGRFLISRDDAKSTMYLQMNSLKPEDTAVYYCAASPRGFYGPGNALYDYWGQGTQVTVSS
# B9: FJ1427 P035MP03H05 (VHH)
# VHH: B1 VHH with E1Q, V2L, A16G, E19A, N80Y
# B10: FJ1427 P035MP03A06 (VHH)
# VHH: B3 VHH with Q1E, H28R, E42G, Q44A, N55G, L70V, V74G, N76S, V78M, I92M
# B11: FJ1427_P035MP03E06 (VHH)
# VHH: QVQLVESGGGLVQAGRSLGLSCAASGFTFDNYAMSWVRQAPGKGLEWVSSITGAGRGTHYADSVKGRFTISRDNAKNTLYLQMNSLKPEDTAVYYCAKYSSSTYYPPTPARGTDYRGPGTQVTVSS
# B12: FJ1427_P035MP03F06 (VHH)
# VHH: B4 VHH with E1Q, V5Q
# B13: FJ1427_P035MP03A07 (VHH)
# VHH: QVQLVESGGGLVEAGGSLRLSCAASGRAFNNFPMGWFRQAPGKEREFVAAITWISGSTLYADSVKGRFTISRDKSKNTVYLQMSGLKPEDTALYYCAAALKTITRGQHDYTYWGQGTQVTVSS
# B14: FJ1427_P035MP03C07 (VHH)
# VHH: QVQLVESGGGLVQAGDSLRLSCAASGRSLSTDCMGWVRQAPGKEREFVAGITWGTGSTLYADSVEGRFTISKDNAKNTGYLQMSSLKPEDTAVYYCAVDRYCYRGTVYRDWGRGTQVTVSS
# B15: FJ1427 P035MP03D07 (VHH)
# VHH: B6 VHH with A21S, L24A, V61G, A62D, Q65K, N75A, S85N, R110A
# B16: FJ1427 P035MP03E07 (VHH)
# VHH: QVQLVESGGGLVQAGGSLRLSCAVSGDVFVRYTMAWFRQAPGKEREFVATVTDSGRTTEYVDSVKGRFTVSRDNAKNTVYLQMNNLKPEDTAVYYCAANTDYFRIRSLDANTWGQGTQVTVSS
# B17: FJ1427 P035MP03F07 (VHH)
# VHH: QVQLVESGGGLVQAGGSLRLSCAASGRTFSSYVMGWFRQAPGKEREFVVAITGTRRTTDWPDSVKGRFTISRDNAQNTVYLDMNSLKPEDTAVYYCASARGLPVPPLGDIIHWGEGTLVTVSS
# B18: FJ1427_P035MP03G07 (VHH)
# VHH: QVQLVESGGGLVQAGGSLRLSCAASGRTFSSDAKGWFRQAPGKEREFVAAITWAGRGTDYADSVKGRFTITRDNAKNMVYLQMSNLKPEDTAVYYCALNPEGVIGPYFRNSNRYNYWGQGTQVTVSS
# B19: FJ1427_P035MP03H07 (VHH)
# VHH: B16 VHH with Q1E, A23V, T50A, R104Q, L108V, A110N, T112A
# B20: FJ1427 P035MP03C08 (VHH)
# VHH: B6 VHH
# B21: FJ1427_P035MP03E08 (VHH)
# VHH: QVQLVESGGGLVQAGGSLRLSCAAAGRAIENYPVGWFRRAPGKEREFVAAITWISGSTLYADSVKGRFTISRDNAKNTVYLQMSSLKPEDTALYYCAAALKTITRGQNDYSYWGQGTQVTVSS
# B22: FJ1427_P035MP03A09 (VHH)
# VHH: QVQLVESGGGLVQAGGSLRLACAASGRTFSTLTMGWFRQAPGKEREFVAGISPSGGYAWHADSVKGRFTIDRDNAKNTVYLQTRSLRPEDTAVYYCAADHPPYGAVASRSEYEYDDWGPGTRVTVSS
# B23: FJ1427_P035MP03B09 (VHH)
# VHH: B16 VHH with A23V, A49T, T50S, V51I
# B24: FJ1427 P035MP03F09 (VHH)
# VHH: B21 VHH with Q1E, R19T, A25S, I29F, E30S, R39Q, I54L, K65E, Q82L, Y95F
# B25: FJ1427_P035MP03G09 (VHH)
# VHH: B16 VHH with A23V, T50V, R104Q, L108V, A110N, T112A
# B26: FJ1427_P035MP03H09 (VHH)
# VHH: QVQLVESGGGLVQAGGSLRLSCAASGSIFSINAMGWFRQAPGKEREFVAAISRSGGSTAYVDSVKGRFTISRDNSKNMVHLQMNSLKSEDEAVYYCAATAAVGWTSRWITTDFDSWGQGTQVTVSS
# B27: FJ1427 P035MP03B10 (VHH)
# VHH: B16 VHH with A23V, T50V, R104Q, L108V, A110N, T112A
# B28: FJ1427 P035MP03C10 (VHH)
# VHH: QVQLVESGGGLVQAGGSLRLSCAASGRTFSTTEMGWFRQAPGKEREFVAAITWTGRGTMYAESVEGRFTISRENAKNMVYLQMNSLKPEDTAIYYCAAARRGRAAVRSEGGYDFWGQGTQVTVSS
# B29: FJ1427_P035MP03D10 (VHH)
# VHH: QVQLQESGGGLVQAGDSLRLSCVVSGRDFSGYTMGWFRQPPGKEREFVALITWSTGRVHYTDSVEGRFTISRDSAKNTVYLQMNSLKPEDTAVYTCAAGRVGYTTNLHSYDYSGQGTQVIVSA
# B30: FJ1427_P035MP03E10 (VHH)
# VHH: EVQLVESGGGLVQPGGSLRLSCAASGFTFRNYAMSWVRQAPGKGLEWVGGITGEGLGTIYQDSVEGRFTISRNNAKNTLYLQMNSLRSEDTAVYYCTKMASGTLFRDKPYEYTSRGQGTQVTVSS
# B31: FJ1427_P035MP03G10 (VHH)
# VHH: QVQLVESGGGLVQAGGSLRLSCAASGRSYAMGWFRQAPGKEREFVAAISWSASSTYYSESVKGRFTISRENAKNTVYLQMNSLKPEDTAVYYCAVRASPFVAGSYDPSDDPADYGSWGQGTQVIVSS
# B32: FJ1427 P035MP03H10 (VHH)
# VHH: B28 VHH
# B33: FJ1427 P035MP03B11 (VHH)
# VHH: B6 VHH
# Target: T1, mouse IL-2Rβ (mouse)
# Experiment: P.E. binding ELISA on coated protein
row,Binder,P.E. binding ELISA OD
1,B1,0.048 OD450 nm
2,B2,0.048 OD450 nm
3,B3,0.048 OD450 nm
4,B4,0.049 OD450 nm
5,B5,0.05 OD450 nm
6,B6,0.05 OD450 nm
7,B7,0.049 OD450 nm
8,B8,0.049 OD450 nm
9,B9,0.049 OD450 nm
10,B10,0.047 OD450 nm
11,B11,0.048 OD450 nm
12,B12,0.048 OD450 nm
13,B13,0.049 OD450 nm
14,B14,0.047 OD450 nm
15,B15,0.049 OD450 nm
16,B16,0.057 OD450 nm
17,B17,0.048 OD450 nm

row,Binder,P.E. binding ELISA OD
1,B18,0.048 OD450 nm
2,B19,0.053 OD450 nm
3,B20,0.054 OD450 nm
4,B21,0.048 OD450 nm
5,B22,0.049 OD450 nm
6,B23,0.046 OD450 nm
7,B24,0.048 OD450 nm
8,B25,0.054 OD450 nm
9,B26,0.052 OD450 nm
10,B27,0.05 OD450 nm
11,B28,0.047 OD450 nm
12,B29,0.047 OD450 nm
13,B30,0.048 OD450 nm
14,B31,0.048 OD450 nm
15,B32,0.049 OD450 nm
16,B33,0.052 OD450 nm
